We go through five molecules from patent publication US20150268247A1, “Assay for Screening of Anti-Viral Compounds That Inhibit Specific Interaction Interfaces Between Cullin5 and an ElonginB/ElonginC/ CBF-beta/HIV-1 Vif Complex” (UNIVERSITY OF ROCHESTER, priority 2012, published 2015).

In test [1] the target is T1, Vif/EloB/C/CBFβ quaternary complex (full-length HIV-1 HXB2 Vif(1-192) / ElonginB 1-118 / ElonginC 17 (HIV-1 HXB2; human), P69720. The test can be described thus: fluorescence anisotropy, complex titrated into 25 nM 5-FAM peptide; Sd ± 0.1. (In general: Fluorescence polarisation rises when a labelled molecule tumbles more slowly, as on binding a larger partner.)
Test [2] concerns the target T1, Vif/EloB/C/CBFβ quaternary complex …. The test can be described thus: fluorescence anisotropy, complex titrated into 25 nM 5-FAM peptide; Sd ± 1.0.
For test [3] the target is unchanged. The test can be described thus: fluorescence anisotropy, complex titrated into 25 nM 5-FAM peptide; Sd ± 7.0.
Test [4] shares this target. In words: fluorescence anisotropy, complex titrated into 25 nM 5-FAM peptide; Sd ± 4.2.

A word on the Kd: it is the concentration at which binding is half-saturated. Turning to LFSDVHAVCLWD (modifications not checked) [Cul5(43-54) peptide], in test [1], the dissociation constant Kd was determined as 2.5 µM.
Molecule KQQWFDLFSDVHAVCLW (modifications not checked) [Cul5(37-53) peptide] came in with a Kd in test [1] of 1.2 µM.
In turn, LFSDVHAVCLWDDKGPAKIHQAL (modifications not checked) [Cul5(43-65) peptide] registered a Kd in test [2] of 4.7 µM.
Molecule LRQESVTKQQW (modifications not checked) [Cul5(30-40) peptide] came in with a Kd in test [3] of 16 µM.
In test [4], KQQWFDLFSDVH (modifications not checked) [Cul5(37-48) peptide] had a Kd of 15.6 µM.
